Experimental data taken from article PMC10200994.

B1: STAT4 (unphosphorylated, wild-type), fluorophore fusion [not stated] / STAT4 (unphosphorylated, wild-type), fluorophore fusion [not stated] (parent)
chain 1: MSQWNQVQQLEIKFLEQVDQFYDDNFPMEIRHLLAQWIENQDWEAASNNETMATILLQNLLIQLDEQLGRVSKEKNLLLIHNLKRIRKVLQGKFHGNPMHVAVVISNCLREERRILAAANMPVQGPLEKSLQSSSVSERQRNVEHKVAAIKNSVQMTEQDTKYLEDLQDEFDYRYKTIQTMDQSDKNSAMVNQEVLTLQEMLNSLDFKRKEALSKMTQIIHETDLLMNTMLIEELQDWKRRQQIACIGGPLHNGLDQLQNCFTLLAESLFQLRRQLEKLEEQSTKMTYEGDPIPMQRTHMLERVTFLIYNLFKNSFVVERQPCMPTHPQRPLVLKTLIQFTVKLRLLIKLPELNYQVKVKASIDKNVSTLSNRRFVLCGTNVKAMSIEESSNGSLSVEFRHLQPKEMKSSAGGKGNEGCHMVTEELHSITFETQICLYGLTIDLETSSLPVVMISNVSQLPNAWASIIWYNVSTNDSQNLVFFNNPPPATLSQLLEVMSWQFSSYVGRGLNSDQLHMLAEKLTVQSSYSDGHLTWAKFCKEHLPGKSFTFWTWLEAILDLIKKHILPLWIDGYVMGFVSKEKERLLLKDKMPGTFLLRFSESHLGGITFTWVDHSESGEVRFHSVEPYNKGRLSALPFADILRDYKVIMAENIPENPLKYLYPDIPKDKAFGKHYSSQPCEVSRPTERGDKGYVPSVFIPISTIRSDSTEPHSPSDLLPMSPSVYAVLRENLSPTTIETAMKSPYSAE
chain 2: B1 chain 1
B2: STAT1 (unphosphorylated, wild-type), fluorophore fusion [not stated] / STAT1 (unphosphorylated, wild-type), fluorophore fusion [not stated] (parent)
chain 1: MSQWYELQQLDSKFLEQVHQLYDDSFPMEIRQYLAQWLEKQDWEHAANDVSFATIRFHDLLSQLDDQYSRFSLENNFLLQHNIRKSKRNLQDNFQEDPIQMSMIIYSCLKEERKILENAQRFNQAQSGNIQSTVMLDKQKELDSKVRNVKDKVMCIEHEIKSLEDLQDEYDFKCKTLQNREHETNGVAKSDQKQEQLLLKKMYLMLDNKRKEVVHKIIELLNVTELTQNALINDELVEWKRRQQSACIGGPPNACLDQLQNWFTIVAESLQQVRQQLKKLEELEQKYTYEHDPITKNKQVLWDRTFSLFQQLIQSSFVVERQPCMPTHPQRPLVLKTGVQFTVKLRLLVKLQELNYNLKVKVLFDKDVNERNTVKGFRKFNILGTHTKVMNMEESTNGSLAAEFRHLQLKEQKNAGTRTNEGPLIVTEELHSLSFETQLCQPGLVIDLETTSLPVVVISNVSQLPSGWASILWYNMLVAEPRNLSFFLTPPCARWAQLSEVLSWQFSSVTKRGLNVDQLNMLGEKLLGPNASPDGLIPWTRFCKENINDKNFPFWLWIESILELIKKHLLPLWNDGCIMGFISKERERALLKDQQPGTFLLRFSESSREGAITFTWVERSQNGGEPDFHAVEPYTKKELSAVTFPDIIRNYKVMAAENIPENPLKYLYPNIDKDHAFGKYYSRPKEAPEPMELDGPKGTGYIKTELISVSEVHPSRLQTTDNLLPMSPEEFDEVSRIVGSVEFDSMMNTV
chain 2: B2 chain 1
B3: STAT5A (unphosphorylated, wild-type), fluorophore fusion [not stated] / STAT5A (unphosphorylated, wild-type), fluorophore fusion [not stated] (parent)
chain 1: MAGWIQAQQLQGDALRQMQVLYGQHFPIEVRHYLAQWIESQPWDAIDLDNPQDRAQATQLLEGLVQELQKKAEHQVGEDGFLLKIKLGHYATQLQKTYDRCPLELVRCIRHILYNEQRLVREANNCSSPAGILVDAMSQKHLQINQTFEELRLVTQDTENELKKLQQTQEYFIIQYQESLRIQAQFAQLAQLSPQERLSRETALQQKQVSLEAWLQREAQTLQQYRVELAEKHQKTLQLLRKQQTIILDDELIQWKRRQQLAGNGGPPEGSLDVLQSWCEKLAEIIWQNRQQIRRAEHLCQQLPIPGPVEEMLAEVNATITDIISALVTSTFIIEKQPPQVLKTQTKFAATVRLLVGGKLNVHMNPPQVKATIISEQQAKSLLKNENTRNECSGEILNNCCVMEYHQATGTLSAHFRNMSLKRIKRADRRGAESVTEEKFTVLFESQFSVGSNELVFQVKTLSLPVVVIVHGSQDHNATATVLWDNAFAEPGRVPFAVPDKVLWPQLCEALNMKFKAEVQSNRGLTKENLVFLAQKLFNNSSSHLEDYSGLSVSWSQFNRENLPGWNYTFWQWFDGVMEVLKKHHKPHWNDGAILGFVNKQQAHDLLINKPDGTFLLRFSDSEIGGITIAWKFDSPERNLWNLKPFTTRDFSIRSLADRLGDLSYLIYVFPDRPKDEVFSKYYTPVLAKAVDGYVKPQIKQVVPEFVNASADAGGSSATYMDQAPSPAVCPQAPYNMYPQNPDHVLDQDGEFDLDETMDVARHVEELLRRPMDSLDSRLSPPAGLFTSARGSLS
chain 2: B3 chain 1
B4: STAT5B (unphosphorylated, wild-type), fluorophore fusion [not stated] / STAT5B (unphosphorylated, wild-type), fluorophore fusion [not stated] (parent)
chain 1: MAVWIQAQQLQGEALHQMQALYGQHFPIEVRHYLSQWIESQAWDSVDLDNPQENIKATQLLEGLVQELQKKAEHQVGEDGFLLKIKLGHYATQLQNTYDRCPMELVRCIRHILYNEQRLVREANNGSSPAGSLADAMSQKHLQINQTFEELRLVTQDTENELKKLQQTQEYFIIQYQESLRIQAQFGPLAQLSPQERLSRETALQQKQVSLEAWLQREAQTLQQYRVELAEKHQKTLQLLRKQQTIILDDELIQWKRRQQLAGNGGPPEGSLDVLQSWCEKLAEIIWQNRQQIRRAEHLCQQLPIPGPVEEMLAEVNATITDIISALVTSTFIIEKQPPQVLKTQTKFAATVRLLVGGKLNVHMNPPQVKATIISEQQAKSLLKNENTRNDYSGEILNNCCVMEYHQATGTLSAHFRNMSLKRIKRSDRRGAESVTEEKFTILFESQFSVGGNELVFQVKTLSLPVVVIVHGSQDNNATATVLWDNAFAEPGRVPFAVPDKVLWPQLCEALNMKFKAEVQSNRGLTKENLVFLAQKLFNNSSSHLEDYSGLSVSWSQFNRENLPGRNYTFWQWFDGVMEVLKKHLKPHWNDGAILGFVNKQQAHDLLINKPDGTFLLRFSDSEIGGITIAWKFDSQERMFWNLMPFTTRDFSIRSLADRLGDLNYLIYVFPDRPKDEVYSKYYTPVPCESATAKAVDGYVKPQIKQVVPEFVNASADAGGGSATYMDQAPSPAVCPQAHYNMYPQNPDSVLDTDGDFDLEDTMDVARRVEELLGRPMDSQWIPHAQS
chain 2: B4 chain 1

Variants of: B1
Experiment: co-localization assay (quantitative fluorescence microscopy in HeLa cells)
Details: with STAT4 (unphosphorylated, wild-type), bait S4-NES, test S4-L78S, 19 cells (parent 14 cells), parent: 0.95

screen value | Variant
0.68 | chain 1 L78S

Variants of: B2
Experiment: as above
Details: with STAT1 (unphosphorylated, wild-type), bait S1-NLS, test S1-F77A, 20 cells (parent 12 cells), parent: 0.98

screen value | Variant
0.64 | chain 1 F77A

Variants of: B3
Experiment: as above
Details: with STAT5A (unphosphorylated, wild-type), bait S5A-NES, test S5A-L82A, 19 cells (parent 13 cells), parent: 0.97

screen value | Variant
0.54 | chain 1 L82A

Variants of: B4
Experiment: as above
Details: with STAT5B (unphosphorylated, wild-type), bait S5B-NES, test S5B-L82A, 32 cells (parent 10 cells), parent: 0.97

screen value | Variant
0.63 | chain 1 L82A
